Test results as given in patent US20140024038A1, “METHOD AND REAGENTS FOR TREATING HEPATIC FIBROSIS AND INFLAMMATION” (Agency for Science, Technology and Research, priority 2006, published 2014).

How the values were obtained:
Type in all cases: cell-based, rat
[1] = tested on: HSC-T6, activated HSCs and CFSC-3H; test: Cathepsin S activity measurement in HSCs after IFN-γ induction (BioVision kit, fluorogenic substrate); conditions: IFN-γ 10 ng/ml, 48 h, P<0.05 vs untreated, FIG. 9
Method: The cells were grown in cell culture medium containing 10% FBS in 75 cm^2 flasks. When the cells reached 50-60% confluence, IFN-γ was added at 10 ng/ml or omitted as untreated sample. The cells were harvested 48 h later and resuspended in CS cell lysis buffer. Cathepsin S activity was measured using a kit from BioVision (K1101-01) according to the provided manual. The final substrate concentration was 200 μM. Emitted fluorescence was measured using the Tecan Satire II (Tecan, Zurich, Switzerland) fluorescence plate reader at λex: 400 nm and λem: 505 nm. An AFC standard curve was used to calculate the released fluorophore in μM per μg protein per hour at 37° C.
To further investigate the induction of cathepsin S by IFN-γ, activity measurement was performed to directly detect cathepsin S in activated HSCs and both cell lines. FIG. 9 depicts the cathepsin S activity in activated HSCs and two different cell lines. The cells were grown in cell culture medium containing 10% FBS. When they reached 50-60% confluence, IFN-γ was added or omitted as control. The cells were harvested 48 h later and resuspended in CS cell lysis buffer. Cathepsin S activity was measured using a final substrate concentration of 200 μM. The specific activity is given in released fluorophore (AFC) in μM per μg protein per hour at 37° C. Data are presented as mean±SD*P<0.05.

[2] = tested on: HSC-T6, activated HSCs and CFSC-3H; test: Real-time RT-PCR of Cat S, Cat L, CD74, CIITA and RT1-Dα after IFN-γ treatment
Method: HSC-T6, CFSC-3H and activated HSCs were plated into 75 cm^2 culture flasks and grown overnight at conditions described above. The cells at a confluence of 60-70% were incubated with 10 ng/ml final concentration (equivalent to 100 U/ml) of recombinant rat IFN-γ for 2, 4, 8 and 24 h. The recombinant rat interferon-γ (IFN-γ) was purchased from BioVision (CA, USA). Total RNA was isolated using the NucleoSpin RNAII isolation kit (Macherey & Nagel, Germany) according to the manufacturer's protocol. The RNA concentration was measured with the ND-100 spectrophotometer (NanoDrop Technologies, DE, USA).
Real-time PCR was performed using the ABI 7500 Real Time PCR System (Applied Biosystems, CA, USA). All reagents were purchased from this company unless otherwise stated. Total RNA was reverse transcribed to cDNA using reagents from the cDNA archive kit (4322171). 10 μg of total RNA was used in a total reverse transcription reaction volume of 100 μl. The RT step was performed for 10 min at 25° C. and 2 h at 37° C. In real-time PCR, 20× TaqMan gene expression assay mix of Cat S (Rn01534427_m1), Cat L (Rn00565793_m1), CD74 (Rn01491430_g1), CIITA (Rn01424723_g1) and RT1-Dα (Rn02346209g1), as well as 20×18s rRNA (4319413E) were used. For each real-time target, the reaction comprises of 3 μl cDNA, 0.5 μl 20×18S rRNA, 0.5 μl 20× TaqMan gene expression assay, 1 μl nuclease-free water and 5 μl TaqMan Universal PCR master mix (4352042). Conditions for PCR were 2 min 50° C., 10 min 95° C. and 40 cycles of 15 s 95° C. and 1 min 60° C. The comparative threshold method was used to quantitate relative changes of target mRNA (User Bulletin #2, Applied Biosystems). Relative quantitation of target mRNA was expressed as fold change in gene expression to control (untreated). The data presented are representative for three independent experiments with the same trend. The graphs were made using OrignPro 7 (OriginLab, MA, USA).
FIG. 3A-3C depicts a quantitative analysis of the change in cathepsin S, CIITA, CD74 and RT1-Dα transcript level upon treatment with IFN-γ using real-time RT-PCR. After treatment with IFN-γ for 2, 4, 8 and 24 h, total RNA was extracted from the three different HSCs (activated HSC, HSC-T6 and CFSC-3H). The RNA was reverse transcribed and real-time RT-PCR was performed using TaqMan assays. The results were expressed as fold change in gene expression compared to the untreated samples using the relative quantification method for HSC-T6 (FIG. 3A), activated HSCs (FIG. 3B) and CFSC-3H (FIG. 3C).

[3] = tested on: HSC-T6 and activated HSCs; test: Immunofluorescence staining of CD74, RT1-B and cathepsin S proteins after IFN-γ treatment
Method: The primary cells were grown in DMEM supplemented with 10% FBS on glass cover slips in 24-well culture plates prior to staining with antibodies against GFAP, SMAA, Desmin, RECA-1, ED-2, cathepsin S, RT1-B and CD74. At 60-70% confluence, the cells were washed once with sterile PBS and fixed with 4% paraformaldehyde (PFA) for 30 min at 4° C., followed by three washes with PBS. The cells were blocked and permeabilized in blocking solution (10% horse serum, 0.1% Triton X-100 in PBS) for 1 h at 37° C. The primary antibody was incubated in 10% blocking solution in PBS for 1 h at 37° C. followed by the secondary antibody under the same conditions. The primary antibody was omitted as a negative control. All images were taken with the LEICA DM IRB epifluorescence microscope using a 63× objective.
For induction experiments, IFN-γ was added to the cell culture at low confluence and the cells were cultivated further for different times depending on the targets to be stained (Cat S: 0, 4, 8, 24, 30 h; CD74: 0, 8, 24, 30 h; and RT1-B: 0, 24, 48 h). The presented images are representative for 3 experiments. Images were taken with a 40× objective. The fluorescence intensities from 3 to 7 different fields of vision of one representative experiment were quantified using the Image processing toolbox of the MATLAB platform (MathWorks, MA, USA). The following antibodies were used in the immunofluorescent staining. Anti-Cat S antibody (sc-6505) and anti-CD74 antibody (sc-5438) were from Santa Cruz Biotechnology (CA, USA); anti-RT1-B antibody (554926) was from BD Pharmingen (CA, USA); anti-GFAP antibody (Z 0334) was from Dako (CA, USA); and anti-SMAA-Cy3 (C 6198) and antidesmin antibody (D 8281) were from Sigma Chemicals (MO, USA). The anti-RECA-1 antibody (MCA970) and anti-ED-2 (CD163, MCA342R) were from Serotec (Oxford, UK). […]
For these experiments, we used the HSC-T6 and the activated HSCs. […] FIG. 5A and FIG. 5C show the immunofluorescence staining with anti-CD74 antibody after 30 h of IFN-γ induction for HSC-T6 and activated HSCs respectively (arrows depict the increase in fluorescence). […]

[4] = IFN-γ 10 ng/ml, 2-24 h, HSC-T6, activated HSCs, CFSC-3H, vs untreated

B1: IFN-γ: recombinant rat interferon-γ purchased from BioVision, proinflammatory cytokine (protein, UniProt P01581 23-156, looked up)
Interferon gamma: QGTLIESLESLKNYFNSSSMDAMEGKSLLLDIWRNWQKDGNTKILESQIISFYLRLFEVLKDNQAISNNISVIESHLITNFFSNSKAKKDAFMSIAKFEVNNPQIQHKAVNELIRVIHQLSPESSLRKRKRSRC
[1]
  cathepsin S specific activity: significant increase
[2]; HSCs, data not shown
  CIITA type III transcript: inducible
[2]; IFN-γ 10 ng/ml
  increase in CIITA transcript level in activated HSCs relative to HSC-T6 and CFSC-3H: > 20 times
[2]; [4]
  CIITA transcript level: started to increase at an early time point
  cathepsin S transcript level: upregulated
[2]; IFN-γ 10 ng/ml, at a later time, indirectly through CIITA
  mRNA expression of RT1-Dα and CD74: induced
[2]; IFN-γ 2, 4, 8 and 24 h, activated HSCs, HSC-T6, CFSC-3H, FIG. 4
  cathepsin L mRNA level: no influence
[2]; after 8 h IFN-γ, CFSC-3H
  cathepsin L mRNA expression in CFSC-3H: decreased
[3]; IFN-γ 8 h, quantified fluorescence intensities, FIG. 8
  cathepsin S expression on the protein level: significant increase
[3]; IFN-γ 30 h
  CD74 protein expression: significantly induced
[3]; IFN-γ 48 h
  RT1-B protein expression: induced
